Publication PMC3299805 (Immunity, 2012)
Like-named read-outs stand apart in the source and are kept apart here.

Legend:
[1] = molecular target: T1, JAK2 catalytic domain, JAK2JH1 (UniProt O60674 840-1128); assay: cell-based or functional assay
[2] = molecular target: T1, JAK2 catalytic domain, JAK2JH1; assay: steady-state enzyme kinetics
[3] = molecular target: T1, JAK2 catalytic domain, JAK2JH1; assay: steady-state enzyme kinetics; remark: listed apart in the source

T1 sequence (O60674 840-1128): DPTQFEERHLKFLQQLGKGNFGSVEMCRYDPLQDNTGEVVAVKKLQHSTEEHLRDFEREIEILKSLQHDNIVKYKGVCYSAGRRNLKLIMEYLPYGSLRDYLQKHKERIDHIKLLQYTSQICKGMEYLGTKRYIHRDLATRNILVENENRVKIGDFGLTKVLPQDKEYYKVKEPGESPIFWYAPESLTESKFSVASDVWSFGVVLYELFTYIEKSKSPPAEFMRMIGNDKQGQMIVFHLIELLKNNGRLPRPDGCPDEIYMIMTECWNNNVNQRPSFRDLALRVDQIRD

B1: SOCS3_(22–225)ΔPEST in complex with elongins B and C (complex)
chain 1: LKTFSSKSEYQLVVNAVRKLQESGFYWSAVTGGEANLLLSAEPAGTFLIRDSSDQRHFFTLSVKTQSGTKNLRIQCEGGSFSLQSDPRSTQPVPRFDCVLKLVHHYMGSGSGSGSAYYIYSGGEKIPLVLSRPLSSNVATLQHLCRKTVNGHLDSYEKVTQLPGPIREFLDQYDAPL
chain 2: MDVFLMIRRHKTTIFTDAKESSTVFELKRIVEGILKRPPDEQRLYKDDQLLDDGKTLGECGFTSQTARPQAPATVGLAFRADDTFEALCIEPFSSPPELPDVMKPQDSGSSANEQAVQ
chain 3: MYVKLISSDGHEFIVKREHALTSGTIKAMLSGPGQFAENETNEVNFREIPSHVLSKVCMYFTYKVRYTNSSTEIPEFPIAPEIALELLMAANFLDC
B1 was tested. Which “IC50 of inhibition of the kinase domain's activity (Figure 2A)” value [1] did it give?
Its value is 1500 nM.

And the Ki [2]?
The Ki was 1200 ± 300 nM.

And the Ki [3]?
Its Ki is 1500 ± 700 nM.
